Assay results: article PMC4465062

Target: HOXD13 DNA binding domain (D13DBD) (Mus musculus, UniProt P70217)
Test: NMR

B1: HOXD13 duplex DNA (dsDNA)
DNA 1: CAACGTTAAAAC
DNA 2: GTTTTAACGTTG
binding result: binds
